Results as given in the DeepSol protein solubility set.

Assay: soluble on expression in E. coli; label from the status in PepcDB or PDB records

| Sequence | soluble on expression in E. coli |
| --- | --- |
| MAMHPRAGQKARQEDLHNIPALVANYYLLQPEAGNTAHKVEFGTSGHRGTADKTTFNEHHILAIAQAVADVRHEHGVTGPIFIGKDTHALSEPAFSSVLEVLIANGIEVIVQENNGYTPTPGISHAILTYNLKHADKADGIVITPSHNPPQDGGIKYNPPHGGPAEGELTQAIEDRANAYISQQLAGVKRMPIALAKQSELLKQVDLVKPYVDDLVNVVDMAAIQKAKLKIGVDPLGGSGIDYWRQIGNAYQLDLTLVSEAIDPSFQFMSLDKDGVIRMDCSSPYAMAGLLALKDEYDLAFGNDPDYDRHGIVTPKGLMNPNHFLAVCIDYLYRHRQGWAGHVAVGKTLVSSAMIDKVVADLGRELCEVPVGFKWFVDGLYSGRFGFGGEESAGASFLRQDGTPWSTDKDGIILCLLAAEITAVTGKNPQQYYDELAAKHGDFYYSRIQAVANGPQKNVLKKLSPEMVSAQTLAGDAITARLTHAPGNGAAIGGLKVTTDYGWFAARPSGTEDIYKIYCESFKGAEHLKQIESEAQQIVNQVFKDAGL | not soluble |
| MAMNYLEAFPKELREYYKNLFGKEEANKIMKKLREPVEHYYIRVNTLKISREKLIGELKKEGLKPLRSPYLPEGLYFVREGPNFSDDFEPKLPVVVANKYAAESVYQGAMLYAPGVLKADKNIKEGDEVQIRDPKGLLVGIGIARMDYKEMTEATRGLAVEVTLPKFKLPSLSELKAFEKGYFYPQGLPSMVTARVLEPKEDDVIIDMAAAPGGKTTHIAQLLENKGEIIAIDKSKNRLRKMEENIKRLGVKNVKLVQMDARKLPDLGIKADKILLDAPCTALGVRPKLWEERTLKHIEATARYQRAFIWAAIKSLRRGGVLVYSTCTLSYEENEGNVKFMIRKGMKLEEQSIFIGSPGIGMNKVQRFYPHKHLTQGFFIAKLRKVKDI | soluble |
| MANEMKVFLLTKQGQEVMERQRKKQVLLSDPKAVYQDHFVSVRPDCLVVKKYFIPSMLPFEFHWDKIETMTYLPQNNENKLLVPNRGQDQEGRWWATDVLRPHERELHLYNVRIDVADTEPSKSGFTVIHIDQFLKSCRHLLPYSCKLSGCVWSE | not soluble |
| MANEQVLTAEQVLEKASQYLVDEDIELVARAYEYARDAHSEQYRKSGEPYIIHPIQVAGVLVDLHMDPATVSAGFLHDVVEDTEITLEDIEREFNKEIAMLVDGVTKLGKIKYKSHEQQQAENHRKMFIAMAQDIRVILIKLADRLHNMRTLKHLPQEKQRRIANETLEIFAPLAHRLGISTIKWELEDTSLRYLNPQQYYRIVNLMKRKRAEREEYLDEVMTGIREKLDEVAIQPEISGRPKHIYSIYRKMALQNKQFNEIYDLLAVRVVVNSIKDCYAVLGIIHTCWKPMPGRFKDYIAMPKANLYQSLHTTVIGPKGDPLEVQIRTKEMHEIAEFGIAAHWAYKEGKTAETTGTLEKKLTWFRQILEWQNEASNAEEFMESLKIDLFSDMVFVFTPKGDVMELPLGSVPIDFAYRVYSEIGNKTIGAKVNGKMVTLDYKLKTGDIIEILTSKHSYGPSQDWVKLAQTSHAKNKIRQFFKKQRRDENIEKGRELVEKEVRSLEYEMKEVLAPDNLKRVAEKFNFANEEDMFAAVGYNGITASQIVTRLTDKFRKQREEEEIVEVKEVRKPMKIRKWDSGVKVSGADNLLIRLSKCCNPVPGDDIVGYITKGRGVSIHRRDCVNVHTEEAIERLLEVEWEGSPEKEIEYNVDIEISGYDRRGLLNEVLQAVTETKTYISAVSGRSDRNKMATINMSISIRNLQHLKKVVERIKRVPEIYAVRRMMH | not soluble |
| MANKNYQMSTGVTAVVQKVVEACQDESKRLDLIEIARSYPPNQLRNMQRTFQAITGTFLDAFLKKHLSKDFESLVLMLYKPRAQLLCELIRGATKGAGTDEKCLVDVLLTIETHEVREIRQLYYQLYNDSLGDVVRKDCGDKYMWAKLINAVATGDRIPRDTHELEEDLVLVRKAIETKGVKKDEVSTWIRIFATYTRADFRQLHKMYSAKYNGDSLRAGVEDEFQGLDEYAFKLAHDFLYDPCCAAAFSMNVAFAGSGSDSNRLNRITAMHFRECKGCKYYYKKVYGQAFDERCATELKGVYGDAIKLLWEPVTVPLLSMDDYQGSEQHRPMTLEL | soluble |
| MANLPSSSGMFSRLLANVFNTTVASRCSASGRWWPQPDRRFTTKSDEKSSLEPKNTNETDVIITQQGVKLSKSNAAPVYYKPKSTGPGYELVEHKKGEMIANYTLFEAAINKSKVPWVNYDGLTSEERTIHMAHTRAINDRKLTYIDPKTGYSVFTISHHLQKGKCCGNGCRHCAYEMINASDEIRSQKVWNGAFYV | not soluble |
| MANLTEKFLRIFARRGKSIILAYDHGIEHGPADFMDNPDSADPEYILRLARDAGFDGVVFQRGIAEKYYDGSVPLILKLNGKTTLYNGEPVSVANCSVEEAVSLGASAVGYTIYPGSGFEWKMFEELARIKRDAVKFDLPLVVESFPRGGKVVNETAPEIVAYAARIALELGADAMKIKYTGDPKTFSWAVKVAGKVPVLMSGGPKTKTEEDFLKQVEGVLEAGALGIAVGRNVWQRRDALKFARALAELVYGGKKLAEPLNV | soluble |
| MANLVYSPKDILQKEFKTKMMNGYDPIEVDEFLDNVIKDYEAYNKELLSLQEENSRLMAKLDQLSKAQPTPRVAQEVPKSAAVTNFDILKRLSNLEREVFGKKLDETPSTPVTPSAPSMPAEPANHDVDNAQTRQF | not soluble |
| MANPELLEEQREETRLIIEELLEDGSDPDALYTIEHHLSADDFETLEKAAVEAFKLGYEVTEPEELEVEEGDTVICCDILSECALNAELIDAQVEQLMNLAEKYDVEYDGWGTYFEDPNGEEGDDDDYVDEDDDGVRH | not soluble |
| MANSAGSMADNSKTRVVVGMSGGVDSSVTALLLKEQGYDVIGIFMKNWDDTDENGVCTATEDYKDVAKVADQIGIPYYSVNFEKEYWDRVFEYFLAEYRLGRTPNPDVMCNKEIKFKAFLDYAMQLGADYVATGHYAQVETDENGVVHMLRGIDNNKDQTYFLSQLSQAQLAKTMFPLGGMEKSEVRAIAERAGLATAKKKDSTGVCFIGEKNFKEFLSNYLPAKKGNMVTEDGEIKGQHDGLMYYTIGQRQGLGIGGGGKTQEPWFVIGKDLTTNTLYVGQGFHHEKLYATHLEASEVHFTVDTPMPKEFDCTAKFRYRQADIPVHVSLSEDGTKATVTFKEPARAVTPGQAVVFYDGMECLGGGLIDRAYQDEKELQYVLEHHHHHH | not soluble |
| MAPAPAAEFWEARYRDTGRVWSGRPNELLVQEAGGLAPGTALDLGCGEGADAVWLASRGWRVTGVDISATALERAAGHADGAGVGDRVLWERHELGPSFPEGSFDLVSAHYLQSPVALDQQAVLRAAARAVAPGGTLLVVMHAGWPSWQTEPPFDAAFPTLDGVLAELALPEGEWSVETRRTARRPLEHHHHHH | not soluble |
| MAPLFAVTLYEFKAERDDELDVSPGENLSICAHYDYEWFIAKPINRLGGPGLVPVSYVRIIDLMDPAKYASVDTYDREQVMKIIDEFKIPTVEQWKDQTRRYKESSIQIGNGHGQSQGLE | soluble |
| MAPRGRYGPPSRRSENRVVVSGLPPSGSWQDLKDHMREAGDVCYADVYRDGTGVVEFVRKEDMTYAVRKLDNTKFRSHEGETAYIRVKVDGPRSPSYGRSRSRSRSRSRSLEH | soluble |
| MAPSMIPFTIKLKTCLKMCIQRLRYAQEKQQAIAKQSRRQVAQLLLTNKEQKAHYRVETLIHDDIHIELLEILELYCELLLARVQVINDISTEEQLVKEHMDDGINEAIRSLIYAILFVDEVKELSQLKDLMAWKINVEFVNGVIADHIDVPEKIIKKCSPSVPKEELVDLYLKEIAKTYDVPYSKLENSLSS | soluble |
| MAPVQGSYDYDLIVIGGGSAGLACAKEAVLNGARVACLDFVKPTPTLGTKWGVGGTCVNVGCIPKKLMHQASLLGEAVHEAAAYGWNVDDKIKPDWHKLVQSVQNHIKSVNWVTRVDLRDKKVEYINGLGSFVDSHTLLAKLKSGERTITAQTFVIAVGGRPRYPDIPGAVEYGITSDDLFSLDREPGKTLVVGAGYIGLECAGFLKGLGYEPTVMVRSIVLRGFDQQMAELVAASMEERGIPFLRKTVPLSVEKQDDGKLLVKYKNVETGEESEDVYDTVLWAIGRKGLVDDLNLPNAGVTVQKDKIPVDSQEATNVANIYAVGDIIYGKPELTPVAVLAGRLLARRLYGGSTQRMDYKDVATTVFTPLEYACVGLSEEDAVKQFGADEIEVFHGYYKPTEFFIPQKSVRYCYLKAVAERHGDQRVYGLHYIGPVAGEVIQGFAAALKSGLTINTLINTVGIHPTTAEEFTRLAITKRSGLDPTPAS | soluble |
| MAPVTPDAVNARQQRPADPALRRLMHPHHRNYTASKASAHSVKSVSRCGKSRSELGRMERVGSVARSICSRHTRHGVDRSHFSLRDFFRGISANFELGKDFLREMNTPIHVSEAVFLPLSLCTLSPGRCLRLSPFGHSLTLGSHCEICINRSQVHVPQEFSSTQLSFFNNVHKIIPNKTFYVSLLSSSPSAVKAGLSQPSLLYAYLVTGHFCGTICPIFSTNGKGRLIMHLLLQGTSLHIPETCLKLLCENIGPTYELAVDLVGDAFCIKVSPRDTVYEKAVNVDEDAIYEAIKDLECGDELRLQIINYTQLILENKQ | not soluble |
| MAQAKHKQRKRLKSSCKRHPLYVDFSDVGWNDWIVAPPGYHAFYCHGECPFPLADHLNSTNHAIVQTLVNSVNSKIPKACCVPTELSAISMLYLDENEKVVLKNYQDMVVEGCGCR | soluble |
| MAQFTEDEKIMRRLEQRFNKGVVKYRLIEDGDKILIGLSGGKDSLALLELLARRSRILKPKFTVIAVHVGMTNIPYQSDLEYLKGYSEDLGVPFVHYETFFDPSTDTRKSPCFLCSWNRRKALFTVAKEQGCNKIALGHHMDDILETLLMNITFQGAFSTMPPKLVMRKFEMTIIRPMCLVHEADLIEMARIRGFRKQIKDCPYESLSNRSNMKEVLYSLEKMNPEARYSLWKCMTNIQEELLPGMNEHDL | not soluble |
| MAQLMKRGFSTSAALAKAQLVKTPIQVHGVEGRYAAALYSAGHKQNKLDQISTDLNNVRSVYKDNKKFQEFVLDPTLKANKKKTAIEAISTKLGLTKETGNFLGLLAENGRLNKLESVVSSFESIMRAHRGELFVQVTSAEELSSSNQKALSDALSKIGKSGQKLTVTYAVKPSILGGLVVTIGDKYVDLSIASRVKKYKDALATAI | not soluble |
| MAQRGRKPKPTALKILEGNPGKRPLNEDEPKPEKKAPKCPGWLDAEAKKEWRRMSKQLEAMGILTEIDMAAFAGYCQAYARWKEAEEFITKHGTIVKTPSGYWQQVPQVSIAQTYLKIMNRFCEQFGLTPSARSRIVTDNINDEEDPMELILYKGGSKSV | soluble |
| MAQSSAQLLFDESGQPFIVMREQENQKRITGVEAVKSHILAARAVANTLRTSLGPRGLDKMLVSPDGDVTITNDGATIMEKMDVQHHVAKLMVELSKSQDHEIGDGTTGVVVLAGALLEEAEKLIDRGIHPIKIADGFDLACKKALETLDSISDKFPVENRERLVETAQTSLGSKIVNRSLRQFAEIAVDAVLSVADIESKDVNFEMIKMEGKVGGRLEDTILVKGIVIDKTMSHPQMPKELKNAKVAILTCPFEPPKPKTKHKLDITSTEDFKALRDYERETFETMIRQVKESGATLAICQWGFDDEANHLLQANDLPAVRWVGGPEIELLAIATNARIVPRFSELSKEKLGTAGLVREITFGAAKDRMLSIEQCPNNKAVTIFVRGGNKMIIDEAKRALHDALCVIRNLVRDSRIVYGGGSAELAAAIQVAKEADRIDGIEQYAFRAFADALESIPMALAENSGLAPIDALSDLKAKQIETGKSSLGIDAVFAGTNDMKEQKVIETLLSKREQISLATQVVRMILKIDDVRVPDDERMGY | not soluble |
